Values of other authors as cited in doi:10.1101/2025.05.21.655333.

Target: Lys287 (UniProt position 287, GGQGLKILIHV)
Assay: kinetics
Conditions: The kcat/Km profile reports on free enzyme and free substrate

Substance: L-6-hydroxynicotine oxidase (Pyridine-LHNO) (Paenarthrobacter nicotinovorans)
- pKa: 9.7
